Test results reported in patent US20240141007A1.
Values joined by “and” are separate entries in the source; they are usually repeats but may differ in a detail not shown here. Equal values may be shown once.

Columns and labels:
UCM22 = assay: cell-based or functional assay
UCM23 = assay: cell-based or functional assay

Est. kcat/KM (cleavage efficiency) (UCM22): 1800 M^-1S^-1 and 2100 M^-1S^-1
Est. kcat/KM (cleavage efficiency) (UCM23): 2000 M^-1S^-1 and 2100 M^-1S^-1
B1: MMP-7 (enzyme, UniProt P09237 95-267, looked up)
chain: YSLFPNSPKWTSKVVTYRIVSYTRDLPHITVDRLVSKALNMWGKEIPLHFRKVVWGTADIMIGFARGAHGDSYPFDGPGNTLAHAFAPGTGLGGDAHFDEDERWTDGSSLGINFLYAATHELGHSLGMGHSSDPNAVMYPTYGNGDPQNFKLSQDDIKGIQKLYGKRSNSRKK
